Four molecules from patent US9714285 (dated 2017) can be followed below.

Test [1] has as its target T1, TGFβ3 (human, UniProt P10600).
T1 chain: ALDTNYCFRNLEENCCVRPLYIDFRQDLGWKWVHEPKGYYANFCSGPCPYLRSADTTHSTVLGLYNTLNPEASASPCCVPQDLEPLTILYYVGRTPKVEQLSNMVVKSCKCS
Kind of test: SPR.

Test [2] addresses T2, TGFβ1 (human, UniProt P01137). The test is described as follows: SPR. A general note: Surface plasmon resonance follows binding to a sensor surface in real time, without labels.
The target in test [3] is T3, TGFβ2 (human, UniProt P61812).
T3 chain: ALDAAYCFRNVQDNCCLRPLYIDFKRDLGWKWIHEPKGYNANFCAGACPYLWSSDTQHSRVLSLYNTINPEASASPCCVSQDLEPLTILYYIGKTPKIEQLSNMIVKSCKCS
The test is described as follows: SPR.

Test [4] concerns the target T3, TGFβ2. The test is described as follows: competition, SPR vs TGFβ-RIII.
The target of test [5] is T1, TGFβ3. The test is described as follows: competition, SPR vs TGFβ-RII.
Test [6] concerns the target T1, TGFβ3. The test is described as follows: competition, SPR vs TGFβ-RIII.
Test [7] has as its target T2, TGFβ1. Kind of test: competition, SPR vs TGFβ-RIII.
Test [8] deals with T3, TGFβ2. The test is described as follows: competition, SPR vs TGFβ-RII.
Test [9] deals with T2, TGFβ1. Kind of test: competition, SPR vs TGFβ-RII.

B1: TGFβ-RI (protein)
chain: LQCFCHLCTKDNFTCVTDGLCFVSVTETTDKVIHNSMCIAEIDLIPRDRPFVCAPSSKTGSVTTTYCCNQDHCNKIELPTTVKSSPGLGPVEL
Turning to B1, the binding result with TGFβ3 [1], with TGFβ1 [2] and with TGFβ2 [3] was “no binding” in each case.

B2: XPA.42.068 (antibody, V domains shown)
VH: not shown
VL: SSELTQPPSVSVAPGEKARITCGGNNIGRKSVHWYQQRPGQAPVVVLYYDRVRPSGIPERFSGSNSGNTATLTITRVEAGDEADYFCQVWDNTSEHVVFGGGTQLTVLG
Turning to B2, the EC50 was determined as 2.4 nM with TGFβ2 [4]; 1.4 nM with TGFβ3 [5]; 1.9 nM in the test with TGFβ3 [6]; 0.6 nM with TGFβ1 [7]; 2.2 nM with TGFβ2 [8]; 2 nM with TGFβ1 [9].

B3: XPA.42.089 (antibody, V domains shown)
VH: QVQLVQSGAEVKKPGSSVKVSCKASGGTFSSYAISWVRQAPGQGLEWMGGIIPIFGTANYAQKFQGRVTITADESTSTAYMELSSLRSEDTAVYYCARGLWEVRALPSVYWGQGTLVTVSS
VL: SYELTQPPSVSVAPGQTARITCGANDIGSKSVHWYQQKAGQAPVLVVSEDIIRPSGIPERISGSNSGNTATLTISRVEAGDEADYYCQVWDRDSDQYVFGTGTKVTVLG
Regarding B3, the EC50 with TGFβ2 [4] turned out to be 1.6 nM; in the test with TGFβ3 [5], 34 nM; in the test with TGFβ3 [6], 31 nM; in the test with TGFβ1 [7], 1.2 nM; in the test with TGFβ2 [8], 1.8 nM; in the test with TGFβ1 [9] it was 1.7 nM.

B4: XPA.42.681 (antibody, V domains shown)
VH: not shown
VL: SYVLTQPPSVSVAPGKTARITCGGNNIGFRSVHWYQQKSGQAPVLVIYFDRARPSGIPERFSASNSENTATLTIRRVEAGDEADYYCQVWDSDSDDLVFGGGTQLTVLG
On to B4, for which the EC50 with TGFβ2 [4] is 2.1 nM; in the test with TGFβ3 [5], 1.2 nM; with TGFβ3 [6] it was 1.1 nM; in the test with TGFβ1 [7], 1.2 nM; with TGFβ2 [8], 1.7 nM; in the test with TGFβ1 [9], 2.3 nM.

One may read the EC50 as the concentration giving half of the maximal effect. A lower EC50 goes with higher potency in that assay.
